According to patent US20240141072A1 (published 2024):
Substitutions are numbered along the chain they refer to. Like-named read-outs stand apart in the source and are kept apart here.

T1: biotinylated human DLL3 protein expressed as a human IgG1 fusion protein (human, UniProt Q9NYJ7 27-492, limits assumed, biotinylated)
T1 sequence: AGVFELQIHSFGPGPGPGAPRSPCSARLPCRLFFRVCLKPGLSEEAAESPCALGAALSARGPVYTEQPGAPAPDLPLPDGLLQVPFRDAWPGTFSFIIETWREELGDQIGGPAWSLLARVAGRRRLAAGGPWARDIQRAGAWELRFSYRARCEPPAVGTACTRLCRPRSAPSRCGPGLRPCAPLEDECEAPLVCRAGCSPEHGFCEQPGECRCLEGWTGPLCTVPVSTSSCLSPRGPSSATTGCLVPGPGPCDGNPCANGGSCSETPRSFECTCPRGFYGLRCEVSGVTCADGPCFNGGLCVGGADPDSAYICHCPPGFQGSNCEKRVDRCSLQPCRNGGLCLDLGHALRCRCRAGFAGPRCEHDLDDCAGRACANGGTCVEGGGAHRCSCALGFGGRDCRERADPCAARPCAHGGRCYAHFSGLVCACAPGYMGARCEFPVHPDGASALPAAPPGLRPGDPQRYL

T2: human DLL3 on DLL3-expressing tumor cell lines (human, UniProt Q9NYJ7 27-618)
T2 sequence: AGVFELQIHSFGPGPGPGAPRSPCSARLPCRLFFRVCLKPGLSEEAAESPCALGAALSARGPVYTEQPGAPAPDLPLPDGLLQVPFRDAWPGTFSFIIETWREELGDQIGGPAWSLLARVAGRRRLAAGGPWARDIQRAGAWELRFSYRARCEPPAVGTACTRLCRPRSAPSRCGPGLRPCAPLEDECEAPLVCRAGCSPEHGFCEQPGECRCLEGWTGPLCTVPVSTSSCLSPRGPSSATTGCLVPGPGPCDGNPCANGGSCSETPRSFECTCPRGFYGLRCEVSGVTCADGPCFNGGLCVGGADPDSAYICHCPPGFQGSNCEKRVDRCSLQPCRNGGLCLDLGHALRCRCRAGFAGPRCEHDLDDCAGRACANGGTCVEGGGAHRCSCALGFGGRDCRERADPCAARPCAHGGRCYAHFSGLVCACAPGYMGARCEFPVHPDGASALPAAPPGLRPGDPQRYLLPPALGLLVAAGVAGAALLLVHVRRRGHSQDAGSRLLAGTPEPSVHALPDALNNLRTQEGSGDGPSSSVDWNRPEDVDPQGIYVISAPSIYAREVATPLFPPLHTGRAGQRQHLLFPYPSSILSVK

T3: cynomolgus DLL3 (cynomolgus, UniProt A0A2K5WSR1 27-490)
T3 construct: also called cyDLL3
T3 sequence: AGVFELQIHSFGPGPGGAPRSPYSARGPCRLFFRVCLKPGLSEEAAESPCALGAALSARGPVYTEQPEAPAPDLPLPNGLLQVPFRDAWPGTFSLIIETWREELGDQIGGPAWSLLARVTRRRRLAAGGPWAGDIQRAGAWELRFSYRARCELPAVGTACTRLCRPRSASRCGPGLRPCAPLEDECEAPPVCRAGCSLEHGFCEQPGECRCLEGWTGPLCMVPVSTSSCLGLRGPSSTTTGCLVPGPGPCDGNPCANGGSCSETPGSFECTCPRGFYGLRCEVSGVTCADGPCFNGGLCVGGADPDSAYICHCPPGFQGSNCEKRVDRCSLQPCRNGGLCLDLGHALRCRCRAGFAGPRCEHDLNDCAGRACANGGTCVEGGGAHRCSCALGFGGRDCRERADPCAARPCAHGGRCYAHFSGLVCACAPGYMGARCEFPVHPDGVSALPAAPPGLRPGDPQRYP

B1: 1H012 anti-DLL3 trispecific protein (other)
chain: EVQLVESGGGLVQPGGSLTLSCVASGSTSSINAMGWYRRAPGKQRELVAGISSDGSKVYVDSVKGRFTISRDNAKNSVYLQMNSLRAEDTAVYYCYYFRTVSGSSMPYWGQGTLVTVSS
notes: also called 1H12; not shown: linker 1808, anti-albumin sdAb, linker 1808, anti-CD3 fragment, His6 1819
B2: 2E05 anti-DLL3 trispecific protein (other)
chain: B1 chain with T28P, M34Y, V60S, P107S
notes: not shown: linker 1808, anti-albumin sdAb, linker 1808, anti-CD3 fragment, His6 1819
B3: 2H02 anti-DLL3 trispecific protein (other)
chain: B1 chain with G35A, V48A, V60A, R99H, P107R
notes: as for B2
B4: cynomolgus DLL3 protein (Example 6) (ligand)
chain: T3 sequence
notes: also called cyDLL3
B5: human DLL3 protein (Example 6) (ligand)
chain: T1 sequence
notes: also called huDLL3
B6: 4D09 anti-DLL3 trispecific protein (other)
chain: EVQLVESGGGLVQPGGSLTLSCAASGSSVKFLSMAWYRQAPGKKRELVAGISADGSTDYILSVKGRFTISRDNAKNSVYLQMNSLRAEDTAVYYCYAYEWTTRYTYWGQGTLVTVSS
notes: as for B2
B7: 4H011 anti-DLL3 trispecific protein (other)
chain: B6 chain with K30S, F31R, A53V, L61D, E99R, Y104L
notes: also called 4H11; not shown: linker 1808, anti-albumin sdAb, linker 1808, anti-CD3 fragment, His6 1819

What was measured:
[1] = target: T1, biotinylated human DLL3 protein …; assay: Octet BLI, 60/20/6.67/2.22 nM
Experimental: Using the conditioned medium with known concentrations of the anti-DLL3 trispecific proteins, the binding affinities of the anti-DLL3 trispecific proteins toward human DLL3 protein were measured using a method where biotinylated version of human DLL3 protein were expressed as a human IgG1 fusion protein, and the binding affinity measurement was carried out in an Octet instrument with streptavidin tips.

[2] = target: T2, human DLL3 on DLL3-expressing tumor …; assay: cell-based or functional assay
[3] = target: T2, human DLL3 on DLL3-expressing tumor …; assay: cell-based or functional assay; remark: listed apart in the source
[4] = target: T3, cynomolgus DLL3; assay: Octet BLI, single 60 nM
[5] = target: T2, human DLL3 on DLL3-expressing tumor …; assay: cell-based or functional assay; remark: listed apart in the source
[6] = target: T1, biotinylated human DLL3 protein …; assay: Octet BLI, single 50 nM
In short: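 Anti-DLL3 trispecific proteins were tested directly from conditioned medium in which their concentrations were known. The tip-captured DLL3 fusion served as the immobilised partner, and binding affinity toward human DLL3 was determined from the Octet measurement.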

[7] = target: T4, anti-DLL3 trispecific protein with DLL3 binding domain 52B01; assay: Octet BLI; biotinylated purified CHO trispecific on streptavidin tips; 60, 20, 6.67, 2.22 nM
T4 construct: trispecific, one chain; also called 52B1

[8] = target: T5, anti-DLL3 trispecific protein with DLL3 binding domain 51G10; assay: as above
T5 construct: trispecific, one chain

[9] = target: T6, anti-DLL3 trispecific protein with DLL3 binding domain 52C04; assay: as above
T6 construct: trispecific, one chain; also called 52C4

[10] = target: T7, anti-DLL3 trispecific protein with DLL3 binding domain 52D04; assay: as above
T7 construct: trispecific, one chain; same domain order as the TAC protein m79; also called 52D4

[11] = target: T8, anti-DLL3 trispecific protein with DLL3 binding domain 51H05; assay: as above
T8 construct: trispecific, one chain; also called 51H5

[12] = target: T9, anti-DLL3 trispecific protein with DLL3 binding domain 51G02; assay: as above
T9 construct: trispecific, one chain; also called 51G2

[13] = target: T10, anti-DLL3 trispecific protein with DLL3 binding domain 51F03; assay: as above
T10 construct: trispecific, one chain; also called 51F3

[14] = target: T11, anti-DLL3 trispecific protein with DLL3 binding domain 51A05; assay: as above
T11 construct: trispecific, one chain; also called 51A5

[15] = target: T12, anti-DLL3 trispecific protein with DLL3 binding sequence 51X5; assay: as above
T12 construct: trispecific, one chain

[16] = target: T13, anti-DLL3 trispecific protein containing the parental DLL3 binder DH6; assay: as above
T13 construct: trispecific, one chain
T13 sequence (chain, as listed by the source): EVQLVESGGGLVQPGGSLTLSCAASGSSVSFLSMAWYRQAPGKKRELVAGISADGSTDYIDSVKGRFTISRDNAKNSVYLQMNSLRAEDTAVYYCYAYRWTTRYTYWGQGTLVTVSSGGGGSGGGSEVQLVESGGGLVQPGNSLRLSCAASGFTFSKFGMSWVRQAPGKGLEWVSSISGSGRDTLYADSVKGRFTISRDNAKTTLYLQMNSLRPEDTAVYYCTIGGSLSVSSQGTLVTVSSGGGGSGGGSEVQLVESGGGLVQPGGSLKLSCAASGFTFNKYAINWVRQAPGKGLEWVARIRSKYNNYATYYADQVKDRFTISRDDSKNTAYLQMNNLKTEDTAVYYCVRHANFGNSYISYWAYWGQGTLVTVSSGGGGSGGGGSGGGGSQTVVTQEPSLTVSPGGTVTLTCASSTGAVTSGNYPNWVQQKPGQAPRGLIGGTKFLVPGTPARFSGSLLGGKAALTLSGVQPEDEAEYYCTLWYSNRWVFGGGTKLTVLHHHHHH

T4 sequence (chain, as listed by the source): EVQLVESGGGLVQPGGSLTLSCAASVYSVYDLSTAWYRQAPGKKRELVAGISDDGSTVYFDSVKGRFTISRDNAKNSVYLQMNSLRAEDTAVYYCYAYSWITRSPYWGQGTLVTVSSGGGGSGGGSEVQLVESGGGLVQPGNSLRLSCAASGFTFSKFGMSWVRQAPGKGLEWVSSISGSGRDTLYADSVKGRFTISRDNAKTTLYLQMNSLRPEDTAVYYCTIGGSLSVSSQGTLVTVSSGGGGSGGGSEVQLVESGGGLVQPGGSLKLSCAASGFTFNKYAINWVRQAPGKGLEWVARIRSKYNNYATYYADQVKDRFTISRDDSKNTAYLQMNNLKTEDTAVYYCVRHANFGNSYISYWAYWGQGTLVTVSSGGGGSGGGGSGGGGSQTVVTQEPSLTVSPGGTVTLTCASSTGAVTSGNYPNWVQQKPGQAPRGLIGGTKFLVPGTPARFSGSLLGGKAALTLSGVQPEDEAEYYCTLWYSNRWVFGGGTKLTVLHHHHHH
T7 sequence (chain, as listed by the source): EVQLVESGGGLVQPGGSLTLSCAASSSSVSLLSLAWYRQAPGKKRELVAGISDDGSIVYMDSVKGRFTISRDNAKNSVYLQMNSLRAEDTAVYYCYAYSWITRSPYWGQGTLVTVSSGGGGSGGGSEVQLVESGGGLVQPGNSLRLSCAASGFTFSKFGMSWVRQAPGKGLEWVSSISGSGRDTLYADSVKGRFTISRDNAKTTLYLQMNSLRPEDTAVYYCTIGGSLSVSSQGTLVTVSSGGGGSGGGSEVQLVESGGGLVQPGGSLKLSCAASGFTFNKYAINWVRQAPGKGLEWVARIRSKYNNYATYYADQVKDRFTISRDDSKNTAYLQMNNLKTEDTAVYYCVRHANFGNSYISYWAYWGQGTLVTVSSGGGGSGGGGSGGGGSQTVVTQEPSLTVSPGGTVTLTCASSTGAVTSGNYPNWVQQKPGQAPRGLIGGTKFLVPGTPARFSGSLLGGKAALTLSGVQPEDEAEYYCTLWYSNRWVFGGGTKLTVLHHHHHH
T10 sequence (chain, as listed by the source): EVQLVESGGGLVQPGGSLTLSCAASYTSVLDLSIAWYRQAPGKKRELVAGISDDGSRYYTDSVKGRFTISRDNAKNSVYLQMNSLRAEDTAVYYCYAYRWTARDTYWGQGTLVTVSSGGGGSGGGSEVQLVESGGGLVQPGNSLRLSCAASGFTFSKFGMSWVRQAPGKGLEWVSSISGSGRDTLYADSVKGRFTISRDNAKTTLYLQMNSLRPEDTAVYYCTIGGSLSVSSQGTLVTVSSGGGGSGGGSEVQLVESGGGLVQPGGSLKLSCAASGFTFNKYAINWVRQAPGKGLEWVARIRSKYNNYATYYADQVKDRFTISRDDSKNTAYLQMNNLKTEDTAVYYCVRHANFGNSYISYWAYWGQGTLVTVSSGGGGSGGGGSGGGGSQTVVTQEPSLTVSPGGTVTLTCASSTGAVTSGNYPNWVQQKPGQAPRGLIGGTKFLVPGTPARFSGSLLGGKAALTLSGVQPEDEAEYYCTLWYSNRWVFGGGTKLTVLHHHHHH
T12 sequence (chain, as listed by the source): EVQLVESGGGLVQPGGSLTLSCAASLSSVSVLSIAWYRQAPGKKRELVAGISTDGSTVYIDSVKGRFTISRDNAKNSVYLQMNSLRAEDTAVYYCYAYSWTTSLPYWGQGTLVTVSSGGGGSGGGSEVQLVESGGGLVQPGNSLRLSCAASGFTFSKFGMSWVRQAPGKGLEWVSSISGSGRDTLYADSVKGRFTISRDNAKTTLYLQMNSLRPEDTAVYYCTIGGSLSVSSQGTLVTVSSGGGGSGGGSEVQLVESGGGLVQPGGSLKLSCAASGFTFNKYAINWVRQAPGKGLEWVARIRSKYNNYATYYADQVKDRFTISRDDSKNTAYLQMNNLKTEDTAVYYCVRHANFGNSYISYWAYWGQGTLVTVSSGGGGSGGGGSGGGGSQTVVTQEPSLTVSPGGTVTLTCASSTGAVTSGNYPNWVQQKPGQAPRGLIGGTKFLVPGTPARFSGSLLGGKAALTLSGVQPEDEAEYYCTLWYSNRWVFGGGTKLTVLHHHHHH
T6 sequence (chain, as listed by the source): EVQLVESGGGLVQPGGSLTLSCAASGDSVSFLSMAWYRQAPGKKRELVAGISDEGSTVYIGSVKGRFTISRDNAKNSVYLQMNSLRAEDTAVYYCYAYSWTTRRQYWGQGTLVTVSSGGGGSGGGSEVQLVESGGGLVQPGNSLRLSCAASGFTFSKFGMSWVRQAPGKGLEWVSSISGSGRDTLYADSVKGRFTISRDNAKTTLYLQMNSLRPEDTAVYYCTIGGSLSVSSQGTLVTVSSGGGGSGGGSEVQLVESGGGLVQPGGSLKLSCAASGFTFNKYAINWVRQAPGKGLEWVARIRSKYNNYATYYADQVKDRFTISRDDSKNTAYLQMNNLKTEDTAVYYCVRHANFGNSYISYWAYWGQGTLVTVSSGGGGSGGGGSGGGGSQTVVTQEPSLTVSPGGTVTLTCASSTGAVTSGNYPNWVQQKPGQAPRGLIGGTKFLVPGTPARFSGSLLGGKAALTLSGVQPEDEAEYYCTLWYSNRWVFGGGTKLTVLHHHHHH
T11 sequence (chain, as listed by the source): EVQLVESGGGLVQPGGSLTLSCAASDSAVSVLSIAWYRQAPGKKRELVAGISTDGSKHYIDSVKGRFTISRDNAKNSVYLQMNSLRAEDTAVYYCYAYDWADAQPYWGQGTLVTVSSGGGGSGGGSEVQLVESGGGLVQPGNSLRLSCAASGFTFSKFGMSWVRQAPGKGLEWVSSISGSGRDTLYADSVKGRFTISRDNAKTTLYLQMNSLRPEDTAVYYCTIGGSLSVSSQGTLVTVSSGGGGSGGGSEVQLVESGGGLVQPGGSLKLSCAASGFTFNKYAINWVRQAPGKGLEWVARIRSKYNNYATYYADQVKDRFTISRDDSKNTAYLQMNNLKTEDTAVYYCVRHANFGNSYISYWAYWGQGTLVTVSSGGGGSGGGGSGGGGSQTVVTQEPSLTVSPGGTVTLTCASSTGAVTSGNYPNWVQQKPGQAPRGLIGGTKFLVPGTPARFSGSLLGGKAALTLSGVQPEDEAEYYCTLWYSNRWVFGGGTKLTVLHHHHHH
T5 sequence (chain, as listed by the source): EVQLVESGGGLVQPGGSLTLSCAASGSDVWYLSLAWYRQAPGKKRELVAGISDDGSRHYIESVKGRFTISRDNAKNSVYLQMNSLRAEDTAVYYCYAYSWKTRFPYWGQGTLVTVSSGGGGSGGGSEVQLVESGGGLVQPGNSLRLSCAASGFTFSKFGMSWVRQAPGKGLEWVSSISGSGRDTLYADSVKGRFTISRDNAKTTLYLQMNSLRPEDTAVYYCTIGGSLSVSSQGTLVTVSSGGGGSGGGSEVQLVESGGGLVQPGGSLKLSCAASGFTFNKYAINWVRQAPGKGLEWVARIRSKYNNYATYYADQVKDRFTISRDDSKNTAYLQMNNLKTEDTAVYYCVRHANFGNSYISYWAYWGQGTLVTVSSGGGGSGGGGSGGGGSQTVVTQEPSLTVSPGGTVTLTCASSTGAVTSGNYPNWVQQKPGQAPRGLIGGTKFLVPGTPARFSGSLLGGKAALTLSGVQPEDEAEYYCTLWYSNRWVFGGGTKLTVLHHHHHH
T9 sequence (chain, as listed by the source): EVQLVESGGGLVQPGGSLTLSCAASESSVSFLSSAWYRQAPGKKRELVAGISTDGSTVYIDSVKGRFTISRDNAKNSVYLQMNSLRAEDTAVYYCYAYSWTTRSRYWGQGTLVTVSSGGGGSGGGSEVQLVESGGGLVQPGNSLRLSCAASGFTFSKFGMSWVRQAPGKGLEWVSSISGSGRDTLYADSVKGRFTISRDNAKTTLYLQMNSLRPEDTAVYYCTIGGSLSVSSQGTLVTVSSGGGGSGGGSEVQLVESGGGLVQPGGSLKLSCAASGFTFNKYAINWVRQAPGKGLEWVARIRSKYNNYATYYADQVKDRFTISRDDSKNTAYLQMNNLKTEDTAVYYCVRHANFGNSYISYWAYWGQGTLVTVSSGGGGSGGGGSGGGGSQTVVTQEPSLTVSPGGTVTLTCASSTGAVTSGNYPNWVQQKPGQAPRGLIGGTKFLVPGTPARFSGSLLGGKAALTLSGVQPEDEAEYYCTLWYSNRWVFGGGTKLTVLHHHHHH
T8 sequence (chain, as listed by the source): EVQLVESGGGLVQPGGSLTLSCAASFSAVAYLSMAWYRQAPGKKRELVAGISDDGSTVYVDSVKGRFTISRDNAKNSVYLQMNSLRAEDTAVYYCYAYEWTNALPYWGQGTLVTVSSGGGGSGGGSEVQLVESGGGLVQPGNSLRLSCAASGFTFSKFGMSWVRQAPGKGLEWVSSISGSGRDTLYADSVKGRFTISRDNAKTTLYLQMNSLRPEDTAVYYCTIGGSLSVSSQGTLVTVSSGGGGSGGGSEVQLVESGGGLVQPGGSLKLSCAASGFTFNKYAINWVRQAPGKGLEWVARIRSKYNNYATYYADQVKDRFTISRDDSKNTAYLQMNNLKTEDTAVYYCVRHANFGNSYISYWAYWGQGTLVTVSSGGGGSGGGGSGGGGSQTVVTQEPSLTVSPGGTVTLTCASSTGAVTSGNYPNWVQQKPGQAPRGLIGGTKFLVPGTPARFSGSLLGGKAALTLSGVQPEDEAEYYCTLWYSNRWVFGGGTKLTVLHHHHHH

Binder	Kd [1] [nM]	DMS-153 TDCC EC50 [2] [nM]	DMS-153 TDCC EC50 [3] [nM]	Kd [4] [nM]	fold increase in TDCC potency compared to the parental DLL3 binder DH43 [5] [fold]	Kd [6] [nM]	Kd [7] [nM]	Kd [8] [nM]	Kd [9] [nM]	Kd [10] [nM]	Kd [11] [nM]	Kd [12] [nM]	Kd [13] [nM]	Kd [14] [nM]	Kd [15] [nM]	Kd [16] [nM]	fold increase in TDCC potency compared to the parental DLL3 binder molecule (DH6) [5] [fold]
B1	2.9	0.028	0.063	4.3	> 7	3.5											
B2	3.5	0.033	0.072	4.8		3.9											
B3	4.4	0.031	0.096	5.2		4.4											
B4							1.9	1.4	3	1.7	1.6	3.4	2	1.6	1.5	11	
B5							1.1	0.9	2.2	0.9	0.9	2	1.4	1.2	1	13.5	
B6	8.1	0.052	0.06	8.2		4.7											
B7	3.9	0.036		5.7		4.5											> 8
